In this test the target is interferon gamma receptors on HeLa cells (UniProt P15260). Put plainly: cell-based or functional assay.
UniProt P15260, sequence (P15260 18-489 limits assumed): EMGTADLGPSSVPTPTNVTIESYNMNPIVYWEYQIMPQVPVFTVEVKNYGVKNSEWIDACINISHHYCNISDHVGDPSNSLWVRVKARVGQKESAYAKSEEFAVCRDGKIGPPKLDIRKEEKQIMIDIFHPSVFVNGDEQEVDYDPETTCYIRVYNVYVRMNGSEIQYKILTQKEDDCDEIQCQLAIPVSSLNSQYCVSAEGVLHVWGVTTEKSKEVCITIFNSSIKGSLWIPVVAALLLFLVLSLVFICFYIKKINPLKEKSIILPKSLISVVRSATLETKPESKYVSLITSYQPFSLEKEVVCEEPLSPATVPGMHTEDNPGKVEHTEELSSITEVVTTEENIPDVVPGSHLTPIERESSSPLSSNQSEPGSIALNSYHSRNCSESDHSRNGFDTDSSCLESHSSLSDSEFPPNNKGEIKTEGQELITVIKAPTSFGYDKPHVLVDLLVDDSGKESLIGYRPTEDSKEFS

“interferon gamma variant N16C+S99T (full-length) PEGylated with mPEG-OPSS (10 kDa) (from UniProt P01579 24-161) (ligand)”: the specific activity as percent of the corresponding non-PEGylated interferon gamma variant, Primary Assay came out at 15% and the specific activity, Primary Assay (ISRE-luciferase reporter in HeLa cells) amounted to 1.3e+06 AU/mg.

Regarding “interferon gamma S99T variant (full-length, expressed from pIGY-48 in CHO K1 cells) (from UniProt P01579 24-161) (ligand)”, the interferon gamma activity, Primary Assay (ISRE-luciferase reporter in HeLa cells), culture medium 24 h after transfection is 5.1e+06 AU/ml.

“interferon gamma variant N59C+S99T (full-length) PEGylated with mPEG-MAL (5 kDa) (from UniProt P01579 24-161) (ligand)” showed a specific activity as percent of the corresponding non-PEGylated interferon gamma variant, Primary Assay of 15% and a specific activity, Primary Assay (ISRE-luciferase reporter in HeLa cells) of 2.4e+06 AU/mg.

As to “interferon gamma E38N+S40T+S99T variant (full-length, expressed from pIGY-54 in CHO K1 cells) (from UniProt P01579 24-161) (ligand)”, the interferon gamma activity, Primary Assay (ISRE-luciferase reporter in HeLa cells), culture medium 24 h after transfection was 1.3e+07 AU/ml.

Values taken from US20030138403A1.
